The target in test [1] is MHC class II molecules on MHC class II-expressing Raji cells (human). The experiment in a line: transfer cell ELISA, Raji cells; 125 ng/ml.
Test [2] shares this target. Briefly: transfer cell ELISA, Raji cells; 500 ng/ml. For orientation: An ELISA detects its analyte on a solid surface through an enzyme-linked reagent.
For test [3] the target is unchanged. The experiment in a line: transfer cell ELISA, Raji cells; 7.813 ng/ml.
For test [4] the target is unchanged. The experiment in a line: BLI; immobilised sample, Raji cells in solution; dark control of FIG. 23.
The target is the same in test [5]. The experiment in a line: direct ELISA, plate-immobilised Raji cells; 0.5% Casein, 5,000 cells; 250 ng/ml.
The target is the same in test [6]. Briefly: direct ELISA, plate-immobilised Raji cells; 3% gelatin, 10,000 cells; 250 ng/ml.
Test [7] shares this target. The experiment in a line: direct ELISA, plate-immobilised Raji cells; 3% gelatin, 10,000 cells; 62.5 ng/ml.
Test [8] shares this target. Briefly: direct ELISA, plate-immobilised Raji cells; 3% gelatin, 5,000 cells; 31.25 ng/ml.
For test [9] the target is unchanged. The experiment in a line: direct ELISA, plate-immobilised Raji cells; 0.5% Casein, 2,500 cells; 31.25 ng/ml.
The target is the same in test [10]. The experiment in a line: direct ELISA, plate-immobilised Raji cells; 0.5% Casein, 5,000 cells; 31.25 ng/ml.
For test [11] the target is unchanged. The experiment in a line: direct ELISA, plate-immobilised Raji cells; 3% gelatin, 10,000 cells; 15.625 ng/ml.
Test [12] has the same target. The experiment in a line: BLI; IMP321 sample at 125% binding potency, Raji cells in solution; relative to reference standard.
Test [13] shares this target. Briefly: BLI; IMP321 sample diluted from reference standard to 50% binding potency, Raji cells in solution; relative to reference standard. (Biolayer interferometry detects binding as a change in optical thickness at a sensor tip.)
The target is the same in test [14]. Briefly: transfer cell ELISA, Raji cells; 125 ng/ml; plate row D.
For test [15] the target is unchanged. Briefly: transfer cell ELISA, Raji cells; 250 ng/ml; plate row C.
Test [16] has the same target. Briefly: transfer cell ELISA, Raji cells; 500 ng/ml; plate row C.
The target is the same in test [17]. The experiment in a line: transfer cell ELISA, Raji cells; 1000 ng/ml; plate row C.
The target is the same in test [18]. Briefly: transfer cell ELISA, Raji cells; 0.977 ng/ml; plate row D.
For test [19] the target is unchanged. Briefly: transfer cell ELISA, Raji cells; 1.953 ng/ml; plate row C.
Test [20] shares this target. The experiment in a line: transfer cell ELISA, Raji cells; 3.906 ng/ml; plate row C.
Test [21] has the same target. The experiment in a line: direct ELISA, plate-immobilised Raji cells; 5% BSA, 2,500 cells; 500 ng/ml.
Test [22] has the same target. Briefly: direct ELISA, plate-immobilised Raji cells; 5% BSA, 5,000 cells; 125 ng/ml.
For test [23] the target is unchanged. The experiment in a line: direct ELISA, plate-immobilised Raji cells; 5% BSA, 5,000 cells; 500 ng/ml.
Test [24] has the same target. The experiment in a line: direct ELISA, plate-immobilised Raji cells; 10% FBS, 2,500 cells; 250 ng/ml.
The target is the same in test [25]. Briefly: direct ELISA, plate-immobilised Raji cells; 5% BSA, 10,000 cells; 125 ng/ml.
For test [26] the target is unchanged. The experiment in a line: direct ELISA, plate-immobilised Raji cells; 10% FBS, 2,500 cells; 62.5 ng/ml.
The target is the same in test [27]. The experiment in a line: direct ELISA, plate-immobilised Raji cells; 5% BSA, 10,000 cells; 62.5 ng/ml.
Test [28] shares this target. The experiment in a line: direct ELISA, plate-immobilised Raji cells; 10% FBS, 2,500 cells; 15.625 ng/ml.
Test [29] shares this target. The experiment in a line: direct ELISA, plate-immobilised Raji cells; 10% FBS, 5,000 cells; 15.625 ng/ml.
Test [30] shares this target. The experiment in a line: direct ELISA, plate-immobilised Raji cells; 5% BSA, 10,000 cells; 15.625 ng/ml.

In the case of “IMP321, recombinant soluble human LAG-3Ig fusion protein (Fc fusion)”, the OD (ELISA signal) turned out to be 0.475 OD in test [1]; 1.81 OD in [2]; 0.053 OD in [3]; 0.255 OD in test [5]; 1.39 OD in test [6]; 0.417 OD in test [7]. For the same substance, the OD (ELISA signal) worked out at 0.359 OD in test [8], 0.149 OD in [9], 0.143 OD in [10] and 0.361 OD in test [11]. The substance also gave a Bioactivity (binding) in test [4] of 100%. Besides, the Potency determined by BLI assay in test [12] was 135%; in [13] it was 55%.
With “IMP321 treated with Peptide-N-Glycosidase F (PNGase F) (Fc fusion)”, the OD (ELISA signal) in test [14] came to 0.206 OD; in test [15], 0.276 OD; in [16], 0.642 OD; in [17], 0.878 OD; in [18], 0.01 OD; in test [19], 0.011 OD. The OD (ELISA signal) in [20] worked out at 0.012 OD; in test [21], 1.32 OD; in test [22] it was 0.476 OD; in [23], 1.36 OD; in test [24], 1.29 OD; in test [25], 0.395 OD. Also, the OD (ELISA signal) was found to be 0.329 OD in test [26]; 0.283 OD in test [27]; 0.27 OD in test [28]; 0.327 OD in test [29]; 0.366 OD in test [30].

These data come from patent US20190361034A1.
